Measurements: the supplement of paper PMC10567573

B1: PSD2 (parent)
chain: LTHFSRRYCQCNPDDSTSEDGIHT

Variants of: B1
Assay: protein stability index of a GFP-peptide fusion (GPS, HEK-293T) (PSI 1-6); higher = more stable
Settings: c terminus: a fixed tail appended
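Also: lentivirally expressed fusions sorted by FACS into six bins by GFP to DsRed ratio, PSI derived from sequencing read proportions per bin multiplied by bin number.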

Protein stability index of substitutions, site by site:
S5: K 2.57; A 3.43; W 1.94; Y 2.27; T 3.42; Q 4.35; F 2.18; V 2.67; N 3.69; I 2.34; C 2.71; M 2.89; G 3.78; E 3.97; P 3.4; L 3.06; H 3.36; D 4.38; R 2.53
Q10: G 3.21; M 2.19; V 2.9; N 2.18; L 2.63; K 2.71; F 2.25; P 3.41; T 3.35; E 3.87; S 2.55; C 2.63; I 1.97; H 2.88; W 2.51; R 2.24; A 3.72; D 3.84; Y 3.01
S16: G 3.09; Y 2.88; H 2.95; D 3.17; W 1.77; M 2.64; Q 3.82; R 2.61; V 3.15; C 2.75; L 3.15; K 3.48; A 2.57; F 2.77; E 3.96; T 2.94; I 3.18; P 2.86; N 3.06
C11: Y 3.74; R 4.18; P 4.41; S 4.61; N 4.41; M 3.84; V 4.5; A 4.22; L 3.65; I 4.31; Q 4.71; K 4.52; E 4.38; G 4.56; F 3.12; T 4.31; D 4.31; H 4.17
N12: Q 3.13; P 3.63; L 2.96; K 3.37; H 3.67; M 3.52; S 4.01; D 4.66; R 3.21; V 3.11; W 3.13; E 4; F 2.69; I 2.77; T 3.69; Y 2.39; G 2.83; C 2.82; A 3.34
R7: N 3.75; C 3.15; A 3.3; F 3.26; H 3.8; Q 4.57; M 3.84; W 2.32; E 4.43; V 3.13; K 3.53; S 3.51; L 3.74; G 2.93; P 4.46; D 4.69; T 4.01; I 3.64; Y 2.92
L1: S 3.7; D 4.21; E 3.17; P 3.96; T 3.75; M 3.16; I 3.69; F 2.72; C 3.89; Y 1.62; W 3.36; G 3.79; V 3.77; A 3.56; H 3.66; N 3.75; Q 3.53; K 3.49
F4: R 3.33; G 4.57; L 3.5; A 4.42; H 4.51; Y 2.85; C 3.38; P 4.18; W 3.31; T 4.07; D 3.57; S 3.61; I 3.17; Q 3.73; E 4.55; V 3.16; N 4.51; M 3.49
D14: Q 2.54; R 2.24; P 2.06; M 2.27; F 2.04; V 2; T 2.13; L 2.13; G 2.35; Y 1.99; K 2.49; A 2.09; I 2.08; C 2.8; W 1.59; E 3.02; N 2.45; S 2.49; H 2.14
D15: L 2.26; K 2.28; P 2.46; I 2.1; F 3.21; M 3.21; Q 2.35; Y 3.23; S 2.96; W 2.14; G 2.61; T 2.79; R 2.63; V 2.47; A 2.69; E 4.1; H 2.86; N 2.41; C 2.91
S18: H 3.5; G 2.93; N 3.67; T 2.57; R 1.89; D 4.03; P 3.58; K 2.88; E 3.17; Q 3.43; A 3.7; F 2.63; C 3.69; I 2.99; M 2.97; L 2.35
T2: S 3.23; C 2.51; E 4.41; V 2.24; P 3.26; L 2.41; G 3.67; H 3.9; M 2.86; I 3.01; K 2.47; F 2.63; Y 2.79; A 3.18; D 4.29; R 2.63; Q 2.87; W 2.28; N 3.74
H3: P 3.03; M 2.62; Y 3.13; A 3.54; F 2.16; T 3.28; V 3.69; K 3.52; Q 3.47; C 2.73; E 3.61; S 3.29; I 2.83; R 3.62; N 3.55; L 2.96; D 4.38; G 2.92; W 2.16
R6: D 4.93; V 3.08; K 3.21; Y 2.74; C 2.8; T 3.78; N 4.12; G 4.2; L 3.3; E 4.83; W 2.95; S 4.02; H 3.93; P 3.9; A 4.22; Q 3.49; F 2.33; I 2.75; M 3.29
T17: C 2.72; G 2.7; A 3.02; P 3.68; Y 2.39; S 2.78; I 2.85; K 3.6; W 2.17; H 3.18; N 3.6; D 4.02; V 2.78; M 3.09; F 2.77; E 3.41; R 2.78; L 2.66; Q 3.89
Y8: N 4.74; M 3.62; H 3.88; I 3.48; L 3.86; K 3.66; R 3.7; W 2.36; S 3.93; F 3.27; D 4.72; T 4.18; C 3.01; A 3.75; Q 3.98; V 3.8; P 4.36; G 3.57; E 5.36
C9: P 4.64; Y 4.06; Q 5.06; A 4.23; I 3.96; M 4.16; F 3.83; K 4.39; W 3.57; L 3.67; S 4.78; G 4.15; T 4.12; R 4.1; V 4.13; H 3.84; N 4.09; E 4.16
P13: Q 3.06; S 2.84; D 4.03; R 3.19; V 3.11; F 2.68; W 1.94; T 3.5; M 3.2; N 3.38; L 2.71; K 3.02; C 2.73; I 2.68; G 3.91; H 2.76; Y 2.44; A 2.83
